Data on 9 molecules can be found in paper PMC4691197 (PLoS ONE, 2015).

Numbering of substitutions follows the chain as printed. Names may count otherwise.

B1: YFP WT αB-crystallin (natural protein, UniProt P02511 1-175, looked up)
chain: MDIAIHHPWIRRPFFPFHSPSRLFDQFFGEHLLESDLFPTSTSLSPFYLRPPSFLRAPSWFDTGLSEMRLEKDRFSVNLDVKHFSPEELKVKVLGDVIEVHGKHEERQDEHGFISREFHRKYRIPADVDPLTITSSLSSDGVLTVNGPRKQVSGPERTIPITREEKPAVTAAPKK
notes: αB-crystallin, wild type, in pZS Yellow1-N1; Surmise: whole αB-crystallin (1-175, as the domain limits imply) with the fluorescent protein at the C-terminus (N1 vector); Expressed as ~46 kDa protein; also called WT YFP αB-crystallin; YFP αB; source: HeLa, transfected, in live cells
B2: YFP αB N78D crystallin (natural protein, UniProt P02511 1-175, looked up)
chain: B1 chain with N78D
notes: αB-crystallin N78D, made by site-directed mutagenesis of the pZS Yellow1-N1 construct of αB-crystallin; Same limits as m12; source: HeLa, transfected, in live cells
B3: YFP αB N146D crystallin (natural protein, UniProt P02511 1-175, looked up)
chain: B1 chain with N146D
notes: αB-crystallin N146D, made by site-directed mutagenesis of the pZS Yellow1-N1 construct of αB-crystallin; Same limits as m12; source: HeLa, transfected, in live cells
B4: YFP αB NTD (N-terminal domain of αB-crystallin, 1–64 amino acids) (domain or fragment, UniProt P02511 1-64, looked up)
chain: MDIAIHHPWIRRPFFPFHSPSRLFDQFFGEHLLESDLFPTSTSLSPFYLRPPSFLRAPSWFDTG
notes: αB-crystallin N-terminal domain, residues 1-64; also called αB NTD-YFP; source: HeLa, transfected, in live cells
B5: YFP αB CTE (C-terminal extension of αB-crystallin, 147–175 amino acids) (domain or fragment, UniProt P02511 147-175, looked up)
chain: GPRKQVSGPERTIPITREEKPAVTAAPKK
notes: αB-crystallin C-terminal extension, residues 147-175; also called αB CTE-YFP; source: HeLa, transfected, in live cells
B6: YFP αB CD (core domain of αB-crystallin, 65–146 amino acids) (domain or fragment, UniProt P02511 65-146, looked up)
chain: LSEMRLEKDRFSVNLDVKHFSPEELKVKVLGDVIEVHGKHEERQDEHGFISREFHRKYRIPADVDPLTITSSLSSDGVLTVN
notes: αB-crystallin core domain, residues 65-146; also called αB CD-YFP; source: HeLa, transfected, in live cells
B7: Recombinant His-tagged WT αB-crystallin (natural protein, UniProt P02511 1-175, looked up)
chain: B1 chain
notes: αB-crystallin, wild type; Surmise: N-terminal His tag from pET 28b
B8: Recombinant His-tagged αB-crystallin N146D (natural protein, UniProt P02511 1-175, looked up)
chain: B1 chain with N146D
notes: αB-crystallin with the deamidation-mimicking change N146D, made by site-directed mutagenesis of the pET 28b construct of WT αB; Surmise: N-terminal His tag from pET 28b; also called αB N146D
B9: Recombinant His-tagged αB-crystallin N78D (natural protein, UniProt P02511 1-175, looked up)
chain: B1 chain with N78D
notes: αB-crystallin with the deamidation-mimicking change N78D, made by site-directed mutagenesis of the pET 28b construct of WT αB; Surmise: N-terminal His tag from pET 28b; also called αB N78D

For the first test, the target named is T1, CFP WT βA3-crystallin (UniProt P05813 1-215).
T1 construct: βA3-crystallin, wild type; Surmise: N1 vectors place the fluorescent protein at the C-terminus of the insert; Expressed as ~51 kDa protein; degraded products were also seen on blots; also called CFP βA3-crystallin; βA3- CFP; source: HeLa, transfected, in live cells
Description: FRET or BRET; FLIM-FRET in live HeLa cells co-transfected with CFP βA3-crystallin (donor) and YFP-tagged acceptors; donor life-time after 405 nm pulsed excitation; E = 1-TFRET/TCFP with TCFP 2.8 ns; 5-6 cells from 3 samples. The following applies: partners not purified. (In BRET a luciferase serves as donor, and the signal depends on an acceptor being close.)
Consider B1, for which the FRET efficiency came out at 18% and the “mean life-time of the donor CFP βA3-crystallin” value (from here on “mean life-time”) worked out at 2.4 ± 0.2 ns.
For B2, the FRET efficiency amounted to 36% and the “mean life-time” value was 1.6 ± 0.3 ns.
Take B3: the FRET efficiency was 22% and the “mean life-time” value is 2.2 ± 0.3 ns.
Turning to B4, the FRET efficiency is 32% and the “mean life-time” value is 2.1 ± 0.3 ns.
For B5, in that order: 14% and 2.5 ± 0.2 ns.
In the case of B6, the FRET efficiency is 14% and the “mean life-time” value is 2.5 ± 0.2 ns.

In another test the target is T2, Recombinant His-tagged WT βA3-crystallin (UniProt P05813 1-215).
T2 construct: βA3-crystallin, wild type; Surmise: cloning into Nhe I/Xho I of pET 28b with a stop codon in the insert gives an N-terminal His tag; no cleavage is mentioned
Briefly: SPR; BIACORE 2000; βA3-crystallin immobilised on a CM5 chip by EDC/NHS to ~2500 RU; analytes 5 μM-25 μM at 20 μL/min; room temperature; 50 mM sodium phosphate, pH 7.8, 150 mM NaCl; regeneration with 1 M NaCl; duplicates; 1:1 Langmuir fit. To be noted: both partners purified. Background: SPR reads the build-up and loss of mass on a sensor chip optically.
One may read the Kd as a measure of binding affinity in units of concentration. For the molecule B7, the dissociation constant (Kd) came to 5.75 nM.
With B8, the dissociation constant Kd is 5.05 nM.
The same measure, in the same setting: for B9 the value was 2.46 nM.
